Measured values reported in patent publication US20240368253A1 (BIO TECHNE, published 2024).

Key:
[1] = molecular target: T1, alphaVBeta5 (αVβ5) integrin heterodimer (UniProt P06756 31-992; P18084 24-719); test: ELISA
T1 construct: Heterodimer used in ELISA; source and construct not described; also called aVB5

[2] = molecular target: T1, alphaVBeta5 (αVβ5) integrin heterodimer; test: ELISA, average of 5 experiments normalized to VTN-FL
[3] = molecular target: T1, alphaVBeta5 (αVβ5) integrin heterodimer; test: ELISA; printed as ED50 (median effective dose)

T1 sequence (P06756 31-992, chain 1 of 2): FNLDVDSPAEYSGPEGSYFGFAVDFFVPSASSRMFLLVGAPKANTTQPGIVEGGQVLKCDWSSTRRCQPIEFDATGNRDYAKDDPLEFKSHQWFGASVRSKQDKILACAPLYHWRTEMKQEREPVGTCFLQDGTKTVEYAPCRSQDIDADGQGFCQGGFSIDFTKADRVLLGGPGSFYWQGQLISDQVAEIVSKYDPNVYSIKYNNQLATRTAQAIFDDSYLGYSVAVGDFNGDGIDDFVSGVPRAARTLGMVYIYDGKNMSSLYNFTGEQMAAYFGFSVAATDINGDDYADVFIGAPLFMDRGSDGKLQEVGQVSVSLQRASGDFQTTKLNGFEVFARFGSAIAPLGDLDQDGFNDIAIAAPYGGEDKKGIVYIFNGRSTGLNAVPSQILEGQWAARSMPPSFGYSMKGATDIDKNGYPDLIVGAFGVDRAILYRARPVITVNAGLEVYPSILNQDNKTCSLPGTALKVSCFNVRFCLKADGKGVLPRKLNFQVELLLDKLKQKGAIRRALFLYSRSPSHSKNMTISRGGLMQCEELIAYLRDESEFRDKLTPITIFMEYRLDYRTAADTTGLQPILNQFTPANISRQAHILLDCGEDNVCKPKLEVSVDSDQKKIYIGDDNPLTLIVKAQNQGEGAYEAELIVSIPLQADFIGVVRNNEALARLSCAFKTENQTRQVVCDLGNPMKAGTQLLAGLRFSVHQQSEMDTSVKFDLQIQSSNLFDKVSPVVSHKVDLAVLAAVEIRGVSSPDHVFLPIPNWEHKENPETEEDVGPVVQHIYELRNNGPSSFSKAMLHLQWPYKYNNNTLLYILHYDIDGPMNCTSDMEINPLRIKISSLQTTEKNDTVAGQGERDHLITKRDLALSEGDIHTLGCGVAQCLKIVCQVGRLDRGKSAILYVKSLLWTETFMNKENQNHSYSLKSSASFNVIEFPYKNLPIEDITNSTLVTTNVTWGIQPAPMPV
T1 sequence (P18084 24-719, chain 2 of 2): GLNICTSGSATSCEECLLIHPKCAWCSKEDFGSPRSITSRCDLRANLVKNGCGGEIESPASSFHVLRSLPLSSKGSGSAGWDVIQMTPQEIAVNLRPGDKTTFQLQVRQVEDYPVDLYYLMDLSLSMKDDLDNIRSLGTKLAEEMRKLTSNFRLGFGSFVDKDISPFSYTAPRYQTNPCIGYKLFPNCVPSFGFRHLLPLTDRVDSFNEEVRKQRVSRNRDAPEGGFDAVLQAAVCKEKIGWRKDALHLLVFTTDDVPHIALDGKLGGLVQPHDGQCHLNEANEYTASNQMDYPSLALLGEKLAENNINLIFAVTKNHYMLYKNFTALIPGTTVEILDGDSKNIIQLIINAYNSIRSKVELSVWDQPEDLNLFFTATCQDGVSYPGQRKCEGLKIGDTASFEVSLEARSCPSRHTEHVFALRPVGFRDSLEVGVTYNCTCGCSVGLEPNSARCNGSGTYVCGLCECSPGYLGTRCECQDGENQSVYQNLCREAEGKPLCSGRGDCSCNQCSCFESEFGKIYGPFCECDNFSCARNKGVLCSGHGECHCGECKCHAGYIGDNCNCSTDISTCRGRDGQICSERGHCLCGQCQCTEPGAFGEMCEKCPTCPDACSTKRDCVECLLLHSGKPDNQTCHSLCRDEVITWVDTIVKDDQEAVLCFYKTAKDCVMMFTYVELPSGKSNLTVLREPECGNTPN

B1: VTN62-292,D80Y (ligand)
chain: MVTRGDVFTMPEDEYTVYDYGEEKNNATVHEQVGGPSLTSDLQAQSKGNPEQTPVLKPEEEAPAPEVGASKPEGIDSRPETLHPGRPQPPAEEELCSGKPFDAFTDLKNGSLFAFRGQYCYELDEKAVRPGYPKLIRDVWGIEGPIDAAFTRINCQGKTYLFKGSQYWRFEDGVLDPDYPRNISDGFDGIPDNVDAALALPAHSYSGRERVYFFKGKQYWEYQFQHQPSQEEHHHHHH
notes: also called D80Y mutant
- fold increase in binding affinity [1]: ~2 fold

B2: VTN62-292 T63G, V67N, F68P (ligand)
chain: VGRGDNPTMPEDEYTVYDDGEEKNNATVHEQVGGPSLTSDLQAQSKGNPEQTPVLKPEEEAPAPEVGASKPEGIDSRPETLHPGRPQPPAEEELCSGKPFDAFTDLKNGSLFAFRGQYCYELDEKAVRPGYPKLIRDVWGIEGPIDAAFTRINCQGKTYLFKGSQYWRFEDGVLDPDYPRNISDGFDGIPDNVDAALALPAHSYSGRERVYFFKGKQYWEYQFQHQPSQEEHHHHHH
notes: also called VN-3
- fold increase in ED50 [2]: > 7 fold
- EC50 [3]: 0.523 µg/mL
